Data taken from US6653127B1, “Single-chain recombinant complexes of hepatitis C virus NS3 protease and NS4A cofactor peptide” (Schering Corporation, priority 1997, dated 2003).
Numbering of substitutions follows the chain as printed. Names may count otherwise.

Legend:
[1] = molecular target: Biotin-DTEDVVAC …-pY (streptavidin-tagged peptide) (Hepatitis C virus); assay: SPR (BIAcore); 4G10 amine-coupled to the chip, streptavidin-tagged phosphotyrosine peptide injected, regeneration with 2 M MgCl2
[2] = molecular target: NS3 (Hepatitis C virus genotype 1b, UniProt P26663); conditions: read-out: affinity for NS3 in solution; cited from earlier work
[3] = Solubility judged by achievable concentration of the complex; type: physicochemical
Text: Thirteen representative embodiments of such mutant NS4A-NS3 complexes are disclosed in the Examples below. In some embodiments, the isoleucine at position 17 is mutated to lysine. One such mutant form is referred to as His-NS4A21-32-GSGS-NS33-181/I17K (SEQ ID NO: 2). In other embodiments, the same mutation is made at position 18. One such mutant form is referred to as His-NS4A21-32-GSGS-NS33-181/I18K (SEQ ID NO: 3). In yet other embodiments, the mutations are introduced at both positions. One such mutant is referred to as His-NS4A21-32-GSGS-NS33-181/I17K,I18K (SEQ ID NO: 4).
A “soluble” covalent complex as referred to herein is defined as a protein which will remain in solution after a high spin centrifugation step at 300,000×g in a standard ultracentrifuge in a buffer containing 25 mM HEPES, pH 7.6, 10% glycerol, 0.3 M NaCl, 10 mM βME.

[4] = molecular target: T1, 5A/5B (P8P8') substrate DTEDVVCC*SMSYTWTG-K
T1 chain: DTEDVVCCSMYTWTGK

[5] = Size exclusion chromatography (aggregated vs monodispersed form); type: physicochemical; conditions: for period for which the complex remains monodispersed: 4° C.
Protocol: Two hundred μl of various purified proteins were applied to a calibrated Superdex-75 HR (1 cm×30 cm) FPLC column equilibrated with 25 mM HEPES, pH 7.4, 1M NaCl and 10% glycerol and 10 mM βME at 0.5 ml/min. The column was precalibrated using Pharmacia standard calibration proteins (BSA: 67 KDa; Ovalbumin: 43 KDa; Chymotrypsinogen A: 31 KDa; Ribonuclease A: 13.7 KDa). Protein elution was monitored at 280 nm.

[6] = tested on: 5A/5B (P8P8′) substrate DTEDVVCC*SMSYTWTG-K; assay: Proteolytic activity by 1D-HPLC (reverse-phase) with 5A/5B substrate; type: biochemical, HCV Japanese (1b/BK) strain; conditions: for Km / kcat: 5A/5B substrate, room temperature, 60 min, footnote a for His-NS31-181 + NS4A Peptide: [E] = 0.25 μM, [NS4A Peptide] = 10 μM
Protocol: Following expression and purification, newly engineered recombinant species were assayed for proteolytic activity utilizing a 1D-HPLC (reverse-phase chromatography) technique. Assays were conducted using the 5A/5B (P8P8′) substrate DTEDVVCC*SMSYTWTG-K (SEQ ID NO: 25) in 25 mM Tris-HCl pH 7.5, 150 mM NaCl, 0.5 mM EDTA, 10 mM DTT, 10% glycerol, and 0.05% lauryl maltoside. Concentration of all proteins were determined by BIORAD dye method). […] Reactions were incubated at room temperature for 60 minutes and were quenched with an equal volume of 10% phosphoric acid. Following injection, cleavage products were monitored under a linear 0-80% acetonitrile gradient in 0.1% TFA. The product P1′P8′K peak areas were automatically converted to product quantity in nanomoles by a standard curve.
The various covalent NS4A-NS3 complexes whose proteolytic efficiency has been determined according to the above method, and the results of each determination, are shown in Table 1.

[7] = molecular target: T2, His-NS31-181 (NS3 catalytic domain) (Hepatitis C virus (1b/BK strain), UniProt Q9WMX2 1027-1206); assay: cell-based or functional assay
T2 chain: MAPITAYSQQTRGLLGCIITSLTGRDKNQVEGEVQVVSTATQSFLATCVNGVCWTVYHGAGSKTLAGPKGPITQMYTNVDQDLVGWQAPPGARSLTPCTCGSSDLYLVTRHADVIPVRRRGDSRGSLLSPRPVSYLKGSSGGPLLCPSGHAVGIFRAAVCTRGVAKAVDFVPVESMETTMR

**Q.** Which % binding of tagged peptide after regeneration [1] does the source give for “Anti-phosphotyrosine monoclonal antibody 4G10 (Upstate Biotechnology Inc.)” here?
**A.** Its % binding of tagged peptide after regeneration is 100%.

**Q.** With “NS4A peptide: 13-19 residue NS4A peptide spanning the central hydrophobic domain of the full-length NS4A protein (KKGSVVIVGRIVLSGKPAIIPKK)” as the molecule, how does the Kd [2] read?
**A.** Its Kd is 10 µM.

B1: His-NS4A21-32-GSGS-NS33-181/I17K (protein)
chain: MGSSHHHHHHSSGLVPRGSHMGSVVIVGRIILSGSGSITAYSQQTRGLLGCKITSLTGRDKNQVEGEVQVVSTATQSFLATCVNGVCWTVYHGAGSKTLAGPKGPITQMYTNVDQDLVGWQAPPGARSLTPCTCGSSDLYLVTRHADVIPVRRRGDSRGSLLSPRPVSYLKGSSGGPLLCPSGHAVGIFRAAVCTRGVAKAVDFVPVESMETTMRS
**Q.** For B1, which “achievable concentration of the complex (solubility)” value (shortened to “achievable concentration”) [3] is on record?
**A.** Its value is 17 to 20 mg/mL.

**Q.** What about the Km [4] of the same molecule?
**A.** The Km was 20 µM.

**Q.** What about the kcat [4] of the same molecule?
**A.** The kcat was 0.267 s⁻¹.

**Q.** What about the kcat/Km [4] of the same molecule?
**A.** The kcat/Km was 14000 M⁻¹ s⁻¹.

**Q.** And the “dispersion state as judged by size exclusion chromatography” value (from here on “dispersion state as judged”) [5]?
**A.** Its value is “monodispersed”.

**Q.** What about the “period for which the complex remains monodispersed” value [5] of the same molecule?
**A.** Its value is “about one week”.

**Q.** And the “kinetic properties compared with wild type” value [6]?
**A.** Its value is “identical to those of the wild type”.

**Q.** And the Km [6]?
**A.** Its Km is 20 ± 2 µM.

**Q.** What about the kcat [6] of the same molecule?
**A.** Its kcat is 0.267 ± 0.05 s⁻¹.

B2: His-NS4A21-32-GSGS-NS33-181/I18K (protein)
chain: B1 chain with K52I, I53K
**Q.** With B2 as the molecule, how does the “achievable concentration” value [3] read?
**A.** The value was 17 to 20 mg/mL.

**Q.** What about the Km [4] of the same molecule?
**A.** The Km was 22 µM.

**Q.** What about the kcat [4] of the same molecule?
**A.** Its kcat is 0.167 s⁻¹.

**Q.** What about the kcat/Km [4] of the same molecule?
**A.** The kcat/Km was 8000 M⁻¹ s⁻¹.

**Q.** What about the “dispersion state as judged” value [5] of the same molecule?
**A.** The value was “monodispersed”.

**Q.** What about the “period for which the complex remains monodispersed” value [5] of the same molecule?
**A.** The value was “about one week”.

**Q.** And the “kinetic properties compared with wild type” value [6]?
**A.** The value was “identical to those of the wild type”.

**Q.** And the Km [6]?
**A.** The Km was 22 ± 2 µM.

**Q.** What about the kcat [6] of the same molecule?
**A.** Its kcat is 0.167 ± 0.033 s⁻¹.

B3: His-NS4A21-32-GSGS-NS33-181/I17K,I18K (protein)
chain: B1 chain with I53K
**Q.** Which “achievable concentration” value [3] does the source give for B3 here?
**A.** The value was 17 to 20 mg/mL.

**Q.** And the “dispersion state as judged” value [5]?
**A.** Its value is “monodispersed”.

**Q.** What about the “period for which the complex remains monodispersed” value [5] of the same molecule?
**A.** The value was “about one week”.

**Q.** What about the “kinetic properties compared with wild type” value [6] of the same molecule?
**A.** The value was “identical to those of the wild type”.

B4: His-NS4A21-32-GSGS-NS33-181 (protein)
chain: B1 chain with K52I
**Q.** With B4 as the molecule, how does the Km [4] read?
**A.** Its Km is 19 µM.

**Q.** And the kcat [4]?
**A.** Its kcat is 0.15 s⁻¹.

**Q.** And the kcat/Km [4]?
**A.** The kcat/Km was 8000 M⁻¹ s⁻¹.

B5: NS31-631-NS4A1-54 (non-covalent full-length NS3 protease / NS4A complex) (protein)
chain 1: MAPITAYSQQTRGLLGCIITSLTGRDKNQVEGEVQVVSTATQSFLATCVNGVCWTVYHGAGSKTLAGPKGPITQMYTNVDQDLVGWQAPPGARSLTPCTCGSSDLYLVTRHADVIPVRRRGDSRGSLLSPRPVSYLKGSSGGPLLCPSGHAVGIFRAAVCTRGVAKAVDFVPVESMETTMRSPVFTDNSSPPAVPQSFQVAHLHAPTGSGKSTKVPAAYAAQGYKVLVLNPSVAATLGFGAYMSKAHGIDPNIRTGVRTITTGAPVTYSTYGKFLADGGCSGGAYDIIICDECHSTDSTTILGIGTVLDQAETAGARLVVLATATPPGSVTVPHPNIEEVALSNTGEIPFYGKAIPIEAIRGGRHLIFCHSKKKCDELAAKLSGLGINAVAYYRGLDVSVIPTIGDVVVVATDALMTGYTGDFDSVIDCNTCVTQTVDFSLDPTFTIETTTVPQDAVSRSQRRGRTGRGRRGIYRFVTPGERPSGMFDSSVLCECYDAGCAWYELTPAETSVRLRAYLNTPGLPVCQDHLEFWESVFTGLTHIDAHFLSQTKQAGDNFPYLVAYQATVCARAQAPPPSWDQMWKCLIRLKPTLHGPTPLLYRLGAVQNEVTLTHPITKYIMACMSADLEVVT
chain 2: STWVLVGGVLAALAAYCLTTGSVVIVGRIILSGRPAIVPDRELLYQEFDEMEEC
**Q.** With B5 as the molecule, how does the Km [4] read?
**A.** Its Km is 20 µM.

**Q.** What about the kcat [4] of the same molecule?
**A.** The kcat was 0.167 s⁻¹.

**Q.** What about the kcat/Km [4] of the same molecule?
**A.** The kcat/Km was 8000 M⁻¹ s⁻¹.

B6: His-NS31-181 + NS4A Peptide (non-covalent complex) (protein)
chain 1: T2 chain
chain 2: KKGSVVIVGRIVLSGKPAIIPKK
**Q.** For B6, which Km [4] is on record?
**A.** The Km was 80 µM.

**Q.** What about the kcat [4] of the same molecule?
**A.** Its kcat is 0.05 s⁻¹.

**Q.** And the kcat/Km [4]?
**A.** Its kcat/Km is 500 M⁻¹ s⁻¹.

**Q.** For KKGSVVIVGRIVLSGKPAIIPKK [4A peptide KKGSVVIVGRIVLSGKPAIIPKK], which “catalytic activity relative to full-length NS31-631-NS4A1-54” value [7] is on record?
**A.** The value was 8 fold lower.
